Test [1] concerns the target recombinant human alpha synuclein A30P (human) (UniProt P37840). In words: cell-based or functional assay.
Test [2] deals with recombinant human alpha synuclein A53T (human) (UniProt P37840). Put plainly: cell-based or functional assay.
In test [3] the target is recombinant human alpha synuclein E46K (human) (UniProt P37840). Put plainly: cell-based or functional assay.
For test [4], the target named is recombinant human wild type alpha synuclein (human) (UniProt P37840). In words: cell-based or functional assay.
Test [5] deals with biotinylated alpha synuclein (aSN) 1-140 (UniProt P37840). Put plainly: SPR (Biacore 8K), biotinylated aSN on SA chip, binder as analyte, 25 °C. On the technique in general: SPR reads the build-up and loss of mass on a sensor chip optically.
Test [6] shares this target. In words: SPR (Biacore 8K), biotinylated aSN on SA chip, binder as analyte, 37 °C.

These results are taken from patent publication EP4421085A1.

Consider AS69 (designed binder), for which the Ranking of the binders in figure 5 (ThT aggregation assay) in test [1] is 5 rank; in test [2], 6 rank; in test [3], 4 rank; in test [4] it was 3 rank. In addition, the Kd (as a rule, the constant that tells how readily two partners part at equilibrium) in test [5] stood at 72.2 nM; in test [6], 64.9 nM. In addition, the koff (usually the first-order rate constant of dissociation) in test [5] was determined as 0.000114 s⁻¹; in test [6], 0.000252 s⁻¹. Also, the on-rate constant (kon) (in general, the second-order rate constant of association) in test [5] stood at 1580 M⁻¹ s⁻¹; in test [6], 3880 M⁻¹ s⁻¹.
